The values below come from ChEMBL document CHEMBL2074511, “Molecular cloning and pharmacological characterization of rat multidrug resistance protein 1 (mrp1)” (Drug Metab Dispos, 2003).

Substrate in the data set: CCCCC/C=C\C\C=C/C=C/C=C/[C@@H](SC[C@@H](NC(=O)CC[C@H](N)C(=O)O)C(=O)NCC(=O)O)[C@@H](O)CCCC(=O)O
The experiment in a line: cells, lysate or membranes named.

B1: Multidrug resistance-associated protein 1 (Mus musculus) (protein)
chain: MALRSFCSADGSDPLWDWNVTWHTSNPDFTKCFQNTVLTWVPCFYLWSCFPLYFFYLSRHDRGYIQMTHLNKTKTALGFFLWIICWADLFYSFWERSQGVLRAPVLLVSPTLLGITMLLATFLIQLERRKGVQSSGIMLTFWLVALLCALAILRSKIISALKKDAHVDVFRDSTFYLYFTLVLVQLVLSCFSDCSPLFSETVHDRNPCPESSASFLSRITFWWITGMMVHGYRQPLESSDLWSLNKEDTSEEVVPVLVNNWKKECDKSRKQPVRIVYAPPKDPSKPKGSSQLDVNEEVEALIVKSPHKDREPSLFKVLYKTFGPYFLMSFLYKALHDLMMFAGPKILELIINFVNDREAPDWQGYFYTALLFVSACLQTLALHQYFHICFVSGMRIKTAVVGAVYRKALLITNAARKSSTVGEIVNLMSVDAQRFMDLATYINMIWSAPLQVILALYFLWLSLGPSVLAGVAVMILMVPLNAVMAMKTKTYQVAHMKSKDNRIKLMNEILNGIKVLKLYAWELAFQDKVMSIRQEELKVLKKSAYLAAVGTFTWVCTPFLVALSTFAVFVTVDERNILDAKKAFVSLALFNILRFPLNILPMVISSIVQASVSLKRLRIFLSHEELEPDSIERRSIKSGEGNSITVKNATFTWARGEPPTLNGITFSIPEGALVAVVGQVGCGKSSLLSALLAEMDKVEGHVTLKGSVAYVPQQAWIQNDSLRENILFGHPLQENYYKAVMEACALLPDLEILPSGDRTEIGEKGVNLSGGQKQRVSLARAVYSNSDIYLFDDPLSAVDAHVGKHIFEKVVGPMGLLKNKTRILVTHGISYLPQVDVIIVMSGGKISEMGSYQELLDRDGAFAEFLRTYANAEQDLASEDDSVSGSGKESKPVENGMLVTDTVGKHLQRHLSNSSSHSGDTSQQHSSIAELQKAGAKEETWKLMEADKAQTGQVQLSVYWNYMKAIGLFITFLSIFLFLCNHVSALASNYWLSLWTDDPPVVNGTQANRNFRLSVYGALGILQGAAIFGYSMAVSIGGIFASRRLHLDLLYNVLRSPMSFFERTPSGNLVNRFSKELDTVDSMIPQVIKMFMGSLFSVIGAVIIILLATPIAAVIIPPLGLVYFFVQRFYVASSRQLKRLESVSRSPVYSHFNETLLGVSVIRAFEEQERFIHQSDLKVDENQKAYYPSIVANRWLAVRLECVGNCIVLFAALFAVISRHSLSAGLVGLSVSYSLQITAYLNWLVRMSSEMETNIVAVERLKEYSETEKEAPWQIQETAPPSTWPHSGRVEFRDYCLRYREDLDLVLKHINVTIEGGEKVGIVGRTGAGKSSLTLGLFRINESAEGEIIIDGVNIAKIGLHNLRFKITIIPQDPVLFSGSLRMNLDPFSQYSDEEVWMALELAHLKGFVSALPDKLNHECAEGGENLSVGQRQLVCLARALLRKTKILVLDEATAAVDLETDNLIQSTIRTQFEDCTVLTIAHRLNTIMDYTRVIVLDKGEVRECGAPSELLQQRGIFYSMAKDAGLV
The Km is the substrate concentration at which the rate is half of its maximum. B1: the Km amounted to 0.05 µM.
